Measurements reported in publication doi:10.1101/2020.01.06.896332 (bioRxiv, 2020).
Values joined by “and” are separate entries in the source; they are usually repeats but may differ in a detail not shown here. Identical values can stand only once.

Molecular target: the molecule itself
Experiment: SEC

B1: human diacylglycerol O-acyltransferase-1 (enzyme, UniProt O75907 1-488, looked up)
chain: MGDRGSSRRRRTGSRPSSHGGGGPAAAEEEVRDAAAGPDVGAAGDAPAPAPNKDGDAGVGSGHWELRCHRLQDSLFSSDSGFSNYRGILNWCVVMLILSNARLFLENLIKYGILVDPIQVVSLFLKDPYSWPAPCLVIAANVFAVAAFQVEKRLAVGALTEQAGLLLHVANLATILCFPAAVVLLVESITPVGSLLALMAHTILFLKLFSYRDVNSWCRRARAKAASAGKKASSAAAPHTVSYPDNLTYRDLYYFLFAPTLCYELNFPRSPRIRKRFLLRRILEMLFFTQLQVGLIQQWMVPTIQNSMKPFKDMDYSRIIERLLKLAVPNHLIWLIFFYWLFHSCLNAVAELMQFGDREFYRDWWNSESVTYFWQNWNIPVHKWCIRHFYKPMLRRGSSKWMARTGVFLASAFFHEYLVSVPLRMFRLWAFTGMMAQIPLAWFVGRFFQGNYGNAAVWLSLIIGQPIAVLMYVHDYYVLNYEAPAAEA
  stoichiometry N: 2 and 4
